T1: 15N-13C-2D triply labeled MPER 27mer (HIV-1 (HxB2))
T1 chain: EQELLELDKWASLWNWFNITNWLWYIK

T2: full-length MPER segment (peptide containing the C-helical MPER region) (HIV-1 HXB2, UniProt P04578)
T2 chain: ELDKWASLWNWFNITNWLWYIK

T3: MPER peptide QQEKNEQELLELDKWASLWNWFNI (binding analysis in membrane environment) (HIV-1 HXB2)
T3 chain: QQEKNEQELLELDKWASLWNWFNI


Key:
[1] = molecular target: T1, 15N-13C-2D triply labeled MPER 27mer; experiment: NMR chemical shift perturbation and cross-saturation transfer
[2] = molecular target: trimeric ADA strain HIV-1 envelope protein GP160 (HIV-1 subtype B, isolate ADA, UniProt Q6TAN8, strain); experiment: flow cytometry on cells
[3] = molecular target: T2, full-length MPER segment (peptide …); experiment: SPR
[4] = molecular target: wt MPER peptide of the alanine scan (HIV-1 HXB2, UniProt P04578); experiment: SPR
[5] = molecular target: T3, MPER peptide QQEKNEQELLELDKWASLWNWFNI …; experiment: SPR

| Binder | binding result [1] | % of cells stained [2] | binding result [3] | binding result [4] | Kd [5] |
| --- | --- | --- | --- | --- | --- |
| 2F5 Fab, wild type (Fab, V domains shown) VH: RITLKESGPPLVKPTQTLTLTCSFSGFSLSDFGVGVGWIRQPPGKALEWLAIIYSDDDKRYSPSLNTRLTITKDTSKNQVVLVMTRVSPVDTATYFCAHRRGPTTLFGVPIARGPVNAMDVWGQGITVTISS VL: ALQLTQSPSSLSASVGDRITITCRASQGVTSALAWYRQKPGSPPQLLIYDASSLESGVPSRFSGSGSGTEFTLTISTLRPEDFATYYCQQLHFYPHTFGGGTRVDVR | binds |  |  |  |  |
| 2F5 broadly neutralizing monoclonal antibody, wild type (antibody, V domains shown) VH: RITLKESGPPLVKPTQTLTLTCSFSGFSLSDFGVGVGWIRQPPGKALEWLAIIYSDDDKRYSPSLNTRLTITKDTSKNQVVLVMTRVSPVDTATYFCAHRRGPTTLFGVPIARGPVNAMDVWGQGITVTISS VL: ALQLTQSPSSLSASVGDRITITCRASQGVTSALAWYRQKPGSPPQLLIYDASSLESGVPSRFSGSGSGTEFTLTISTLRPEDFATYYCQQLHFYPHTFGGGTRVDVR |  | 36 % of cells stained | binds | binds | 3.1 nM |
| 2F5m I100FS monoclonal antibody (antibody, V domains shown) VH: RITLKESGPPLVKPTQTLTLTCSFSGFSLSDFGVGVGWIRQPPGKALEWLAIIYSDDDKRYSPSLNTRLTITKDTSKNQVVLVMTRVSPVDTATYFCAHRRGPTTLFGVPSARGPVNAMDVWGQGITVTISS VL: ALQLTQSPSSLSASVGDRITITCRASQGVTSALAWYRQKPGSPPQLLIYDASSLESGVPSRFSGSGSGTEFTLTISTLRPEDFATYYCQQLHFYPHTFGGGTRVDVR |  | 20 % of cells stained | binds | binds | 28 nM |
| 2F5m F100BS monoclonal antibody (antibody, V domains shown) VH: RITLKESGPPLVKPTQTLTLTCSFSGFSLSDFGVGVGWIRQPPGKALEWLAIIYSDDDKRYSPSLNTRLTITKDTSKNQVVLVMTRVSPVDTATYFCAHRRGPTTLSGVPIARGPVNAMDVWGQGITVTISS VL: ALQLTQSPSSLSASVGDRITITCRASQGVTSALAWYRQKPGSPPQLLIYDASSLESGVPSRFSGSGSGTEFTLTISTLRPEDFATYYCQQLHFYPHTFGGGTRVDVR |  | 12 % of cells stained | binds | binds | 97 nM |
| 2F5m L100AS F100BS monoclonal antibody (antibody, V domains shown) VH: RITLKESGPPLVKPTQTLTLTCSFSGFSLSDFGVGVGWIRQPPGKALEWLAIIYSDDDKRYSPSLNTRLTITKDTSKNQVVLVMTRVSPVDTATYFCAHRRGPTTSSGVPIARGPVNAMDVWGQGITVTISS VL: ALQLTQSPSSLSASVGDRITITCRASQGVTSALAWYRQKPGSPPQLLIYDASSLESGVPSRFSGSGSGTEFTLTISTLRPEDFATYYCQQLHFYPHTFGGGTRVDVR |  | 3.9 % of cells stained | binds |  | 476 nM |

Reference: article PMC3253551 (Nature structural & molecular biology, 2011)
